Measured values taken from publication PMC6938246.

Experiments:
[1] = molecular target: filamentous actin (F-actin) (rabbit) (UniProt P68135); test: co-sedimentation
[2] = molecular target: filamentous actin (F-actin) (rabbit) (UniProt P68135); test: single-molecule TIRF microscopy

utrophin actin-binding domain (CH1–CH2), wild type, sequence (P46939 31-256): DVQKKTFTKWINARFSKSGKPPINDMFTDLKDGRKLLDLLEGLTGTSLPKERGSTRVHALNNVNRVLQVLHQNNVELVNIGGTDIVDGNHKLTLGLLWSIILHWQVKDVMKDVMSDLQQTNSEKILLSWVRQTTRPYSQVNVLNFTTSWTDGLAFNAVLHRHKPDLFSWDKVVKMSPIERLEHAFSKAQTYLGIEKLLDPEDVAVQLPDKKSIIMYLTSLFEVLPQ
utrophin actin-binding domain with residues 1–27 truncated (Δ-n-term), sequence (P46939 28-3433, stated change not applied): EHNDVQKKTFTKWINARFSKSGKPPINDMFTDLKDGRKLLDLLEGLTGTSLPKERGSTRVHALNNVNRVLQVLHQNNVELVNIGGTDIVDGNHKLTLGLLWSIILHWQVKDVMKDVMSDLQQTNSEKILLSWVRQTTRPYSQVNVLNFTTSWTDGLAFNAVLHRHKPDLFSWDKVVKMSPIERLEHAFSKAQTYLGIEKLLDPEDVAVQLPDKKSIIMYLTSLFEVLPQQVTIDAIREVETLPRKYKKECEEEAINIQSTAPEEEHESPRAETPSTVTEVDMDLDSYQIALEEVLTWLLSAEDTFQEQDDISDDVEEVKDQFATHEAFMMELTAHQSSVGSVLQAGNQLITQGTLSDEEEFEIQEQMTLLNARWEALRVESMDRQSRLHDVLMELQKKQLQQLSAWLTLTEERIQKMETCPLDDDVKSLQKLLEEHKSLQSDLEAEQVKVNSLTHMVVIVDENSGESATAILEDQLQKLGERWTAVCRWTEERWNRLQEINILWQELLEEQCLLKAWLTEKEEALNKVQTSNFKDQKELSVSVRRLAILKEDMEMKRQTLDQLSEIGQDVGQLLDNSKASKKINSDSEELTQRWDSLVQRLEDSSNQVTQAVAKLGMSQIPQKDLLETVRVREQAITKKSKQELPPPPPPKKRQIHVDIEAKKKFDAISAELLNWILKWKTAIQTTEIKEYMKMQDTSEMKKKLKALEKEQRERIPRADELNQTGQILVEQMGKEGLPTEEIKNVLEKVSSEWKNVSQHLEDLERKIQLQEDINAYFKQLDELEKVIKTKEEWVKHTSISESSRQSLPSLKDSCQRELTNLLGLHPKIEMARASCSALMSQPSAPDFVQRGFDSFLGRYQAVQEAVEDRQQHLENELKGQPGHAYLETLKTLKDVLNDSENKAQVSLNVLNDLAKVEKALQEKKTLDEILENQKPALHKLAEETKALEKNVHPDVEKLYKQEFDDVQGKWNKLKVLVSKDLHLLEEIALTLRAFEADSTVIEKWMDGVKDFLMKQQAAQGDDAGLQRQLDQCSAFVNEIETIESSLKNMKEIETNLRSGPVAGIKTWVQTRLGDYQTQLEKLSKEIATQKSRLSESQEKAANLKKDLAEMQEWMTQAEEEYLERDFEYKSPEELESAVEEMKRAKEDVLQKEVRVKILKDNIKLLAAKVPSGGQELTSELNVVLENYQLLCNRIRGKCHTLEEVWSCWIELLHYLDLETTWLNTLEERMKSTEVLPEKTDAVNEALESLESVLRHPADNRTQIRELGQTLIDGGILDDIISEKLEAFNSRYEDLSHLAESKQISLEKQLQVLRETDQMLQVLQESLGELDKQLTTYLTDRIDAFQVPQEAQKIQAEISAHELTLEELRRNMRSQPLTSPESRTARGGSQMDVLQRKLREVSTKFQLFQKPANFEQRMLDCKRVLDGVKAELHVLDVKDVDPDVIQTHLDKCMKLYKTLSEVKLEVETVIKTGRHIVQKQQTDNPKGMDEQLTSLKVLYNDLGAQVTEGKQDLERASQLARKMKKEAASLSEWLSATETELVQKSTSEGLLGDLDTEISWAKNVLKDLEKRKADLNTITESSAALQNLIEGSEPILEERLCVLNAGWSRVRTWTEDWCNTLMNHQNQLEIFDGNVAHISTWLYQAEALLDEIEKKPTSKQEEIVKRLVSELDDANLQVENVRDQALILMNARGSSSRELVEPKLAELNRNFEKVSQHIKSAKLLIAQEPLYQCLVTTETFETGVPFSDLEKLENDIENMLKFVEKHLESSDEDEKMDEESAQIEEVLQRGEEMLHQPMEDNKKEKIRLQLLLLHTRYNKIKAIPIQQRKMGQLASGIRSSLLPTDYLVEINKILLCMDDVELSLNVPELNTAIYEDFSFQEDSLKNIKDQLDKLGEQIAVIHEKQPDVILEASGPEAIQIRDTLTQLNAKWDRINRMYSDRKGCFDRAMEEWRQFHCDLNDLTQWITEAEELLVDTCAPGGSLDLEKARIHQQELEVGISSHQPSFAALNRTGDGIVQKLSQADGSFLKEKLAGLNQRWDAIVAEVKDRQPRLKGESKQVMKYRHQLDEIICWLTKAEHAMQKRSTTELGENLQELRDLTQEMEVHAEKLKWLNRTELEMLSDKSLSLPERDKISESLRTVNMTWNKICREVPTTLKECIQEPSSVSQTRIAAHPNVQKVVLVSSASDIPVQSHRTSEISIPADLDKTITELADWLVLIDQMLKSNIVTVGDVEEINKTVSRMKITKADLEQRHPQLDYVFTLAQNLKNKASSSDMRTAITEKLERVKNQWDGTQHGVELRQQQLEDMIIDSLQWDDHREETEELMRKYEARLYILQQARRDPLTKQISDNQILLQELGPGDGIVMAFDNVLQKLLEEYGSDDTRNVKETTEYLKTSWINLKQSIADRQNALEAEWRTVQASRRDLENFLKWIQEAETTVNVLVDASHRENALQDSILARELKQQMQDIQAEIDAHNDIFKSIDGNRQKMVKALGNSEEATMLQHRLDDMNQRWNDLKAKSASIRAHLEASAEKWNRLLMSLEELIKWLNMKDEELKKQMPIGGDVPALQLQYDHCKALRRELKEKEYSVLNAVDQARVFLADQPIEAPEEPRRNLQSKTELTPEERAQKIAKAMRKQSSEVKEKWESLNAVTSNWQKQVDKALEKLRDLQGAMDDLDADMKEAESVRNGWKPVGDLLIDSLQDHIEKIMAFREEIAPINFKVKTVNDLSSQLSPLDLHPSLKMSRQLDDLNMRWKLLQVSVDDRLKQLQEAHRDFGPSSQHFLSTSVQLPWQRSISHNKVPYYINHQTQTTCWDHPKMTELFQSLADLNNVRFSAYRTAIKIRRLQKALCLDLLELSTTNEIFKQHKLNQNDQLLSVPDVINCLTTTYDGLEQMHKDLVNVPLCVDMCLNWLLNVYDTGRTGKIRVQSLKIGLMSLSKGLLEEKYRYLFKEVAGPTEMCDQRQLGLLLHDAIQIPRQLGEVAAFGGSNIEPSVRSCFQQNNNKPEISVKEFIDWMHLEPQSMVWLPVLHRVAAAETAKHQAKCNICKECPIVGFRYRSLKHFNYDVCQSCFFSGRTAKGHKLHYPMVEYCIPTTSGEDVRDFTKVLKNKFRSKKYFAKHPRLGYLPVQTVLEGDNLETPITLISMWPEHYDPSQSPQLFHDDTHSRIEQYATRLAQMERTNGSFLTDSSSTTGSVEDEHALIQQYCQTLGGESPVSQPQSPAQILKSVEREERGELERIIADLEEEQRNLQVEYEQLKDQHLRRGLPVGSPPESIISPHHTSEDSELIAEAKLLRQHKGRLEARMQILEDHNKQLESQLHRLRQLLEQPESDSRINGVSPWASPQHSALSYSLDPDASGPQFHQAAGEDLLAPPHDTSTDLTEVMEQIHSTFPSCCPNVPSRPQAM
plectin actin-binding domain (CH1–CH2) (domain or fragment), sequence (Q15149 60-293): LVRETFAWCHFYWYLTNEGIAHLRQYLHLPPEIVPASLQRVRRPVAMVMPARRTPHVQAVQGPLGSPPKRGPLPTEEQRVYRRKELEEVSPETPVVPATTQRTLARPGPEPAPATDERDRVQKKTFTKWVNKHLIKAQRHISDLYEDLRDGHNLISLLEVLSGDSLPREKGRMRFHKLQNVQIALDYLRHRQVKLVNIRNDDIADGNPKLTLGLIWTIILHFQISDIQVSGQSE

Substance | Kd [1] [µM] | mean dwell time of binding events [2] [s]
plectin actin-binding domain (CH1–CH2) (domain or fragment) | 120 | 
plectin actin-binding domain K278E (domain or fragment) | 45.1 | 
utrophin actin-binding domain (CH1–CH2), wild type (from UniProt P46939 31-256) (domain or fragment) | 13.8 | 0.96
utrophin actin-binding domain Q33A T36A (from UniProt P46939 31-256) (domain or fragment) | 0.4 | 8.49
utrophin actin-binding domain S158C conjugated with maleimide-750Da PEG (from UniProt P46939 31-256) (domain or fragment) | 53.8 | 
utrophin actin-binding domain S158C, unconjugated (from UniProt P46939 31-256) (domain or fragment) | 12.5 | 
utrophin actin-binding domain with residues 1–27 truncated (Δ-n-term) (from UniProt P46939 28-3433) (domain or fragment) | 31.4 | 
